Results: patent US20260250398A1

Target: FZD/LRP
Test: cell-based or functional assay

## Wnt3a, recombinantly produced ligand
  TOPFLASH % Wnt Maxima: 100 % Wnt Maxima
  TOPFLASH EC50: 6 nM
